# According to US7056886B2, “GLP-2 formulations” (NPS Allelix, Corp., priority 1999, dated 2006):
# What was measured:
# [1] = Temperature profile / phase transition of h[Gly2]GLP-2; format: physicochemical
# Experimental: It has also been discovered that Tween 80®, salt, and arginine are not suitable materials for producing a stable formulation for h[Gly2]GLP-2.
# (§1) Based on pH solubility profiles, it was determined that a phosphate buffer provides optimal buffering capacity for GLP-2 peptides. […] L-histidine acts as a stabilizing amino acid that increases the length of time that the GLP-2 peptide remains intact prior to degradation.
# [2] = pH solubility profile of h[Gly2]GLP-2 (precipitation); format: physicochemical
# Experimental: as §1
substance,measurement,setting,value
h[Gly2]GLP-2,phase transition temperature,[1]; depending upon the salt concentration,40-55 °C
same,behaviour in the presence of salt,[1]; in the presence of salt,becomes hydrophobic in the presence of salt
same,heat-induced and salt-dependent transition temperature,[1]; temperature profiles,about 40 °C
same,pH at which the analog precipitated,[2],less than 5.5
